T1: MPP6, Q9NZW5
T1 sequence (Q9NZW5 125-219, limits assumed, looked up): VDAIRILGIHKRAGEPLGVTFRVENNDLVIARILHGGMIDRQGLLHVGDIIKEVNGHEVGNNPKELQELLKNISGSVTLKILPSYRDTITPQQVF

T2: MPDZ_5, O75970
T2 sequence (O75970 695-796, limits assumed, looked up): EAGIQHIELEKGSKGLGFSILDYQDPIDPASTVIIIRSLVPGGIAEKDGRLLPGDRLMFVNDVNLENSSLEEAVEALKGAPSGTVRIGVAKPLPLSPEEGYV

T3: MPP7, Q5T2T1
T3 sequence (Q5T2T1 134-230, limits assumed, looked up): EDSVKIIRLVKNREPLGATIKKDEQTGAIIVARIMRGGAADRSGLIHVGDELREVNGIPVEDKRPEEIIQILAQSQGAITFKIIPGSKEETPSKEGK

T4: GRIP1_2, Q9Y3R0
T4 sequence (Q9Y3R0 145-248, limits assumed, looked up): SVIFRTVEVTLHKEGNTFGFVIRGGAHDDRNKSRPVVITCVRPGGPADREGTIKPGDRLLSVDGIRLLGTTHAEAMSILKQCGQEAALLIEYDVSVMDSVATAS

T5: CARD11, Q9BXL7
T5 sequence (Q9BXL7 662-765, limits assumed, looked up): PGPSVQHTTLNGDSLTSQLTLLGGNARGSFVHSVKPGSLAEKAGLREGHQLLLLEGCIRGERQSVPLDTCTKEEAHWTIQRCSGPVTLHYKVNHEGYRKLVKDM

T6: LRRC7, Q96NW7
T6 sequence (Q96NW7 1440-1537, limits assumed, looked up): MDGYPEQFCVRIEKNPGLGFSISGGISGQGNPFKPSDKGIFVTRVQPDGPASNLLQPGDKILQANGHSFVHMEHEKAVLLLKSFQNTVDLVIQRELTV

T7: MPDZ_10, O75970
T7 sequence (O75970 1624-1722, limits assumed, looked up): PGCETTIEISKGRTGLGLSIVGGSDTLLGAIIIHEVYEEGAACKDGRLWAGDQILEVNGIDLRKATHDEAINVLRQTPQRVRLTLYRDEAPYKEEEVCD

T8: RADIL, Q96JH8
T8 sequence (Q96JH8 971-1071, limits assumed, looked up): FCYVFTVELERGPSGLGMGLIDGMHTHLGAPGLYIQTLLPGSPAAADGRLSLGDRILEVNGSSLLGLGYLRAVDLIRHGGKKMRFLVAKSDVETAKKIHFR

T9: GRIP1_7, Q9Y3R0
T9 sequence (Q9Y3R0 999-1096, limits assumed, looked up): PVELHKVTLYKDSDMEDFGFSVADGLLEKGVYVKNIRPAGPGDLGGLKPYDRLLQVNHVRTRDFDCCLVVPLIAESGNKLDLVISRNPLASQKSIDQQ

T10: DFNB31_1, Q9P202
T10 sequence (Q9P202 135-233, limits assumed, looked up): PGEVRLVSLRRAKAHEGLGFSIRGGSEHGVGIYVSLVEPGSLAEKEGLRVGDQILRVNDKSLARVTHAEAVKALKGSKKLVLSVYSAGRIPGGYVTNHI

T11: RAPGEF6, Q8TEU7
T11 sequence (Q8TEU7 525-625, limits assumed, looked up): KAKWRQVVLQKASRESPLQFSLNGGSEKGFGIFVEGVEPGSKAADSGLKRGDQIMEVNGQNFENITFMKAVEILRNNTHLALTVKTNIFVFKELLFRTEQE


Legend:
Experiment in all cases: holdup assay
Parameters in all cases: key: below the threshold = too weak to quantify, mostly under pKd 3.1 to 4
Conditions in all cases: plain residues with an end cap or a label only (N-terminal biotin on a linker: ado-ado)
GOPC, Q9HD26 = biological target: GOPC, Q9HD26
MPP6, Q9NZW5 = biological target: T1, MPP6, Q9NZW5
MPDZ_5, O75970 = biological target: T2, MPDZ_5, O75970
IL16_1, Q14005 = biological target: IL16_1, Q14005
DLG4_2, P78352 = biological target: DLG4_2, P78352
Inadl_2, Q8NI35 = biological target: Inadl_2, Q8NI35
FRMPD4, Q14CM0 = biological target: FRMPD4, Q14CM0
MPP7, Q5T2T1 = biological target: T3, MPP7, Q5T2T1
FRMPD2_2, Q68DX3 = biological target: FRMPD2_2, Q68DX3
GRIP1_2, Q9Y3R0 = biological target: T4, GRIP1_2, Q9Y3R0
CARD11, Q9BXL7 = biological target: T5, CARD11, Q9BXL7
LDB3, O75112 = biological target: LDB3, O75112
LRRC7, Q96NW7 = biological target: T6, LRRC7, Q96NW7
HTRA2, O43464 = biological target: HTRA2, O43464
FRMPD3, Q5JV73 = biological target: FRMPD3, Q5JV73
GRIP2_6, Q9C0E4 = biological target: GRIP2_6, Q9C0E4
MPDZ_10, O75970 = biological target: T7, MPDZ_10, O75970
RADIL, Q96JH8 = biological target: T8, RADIL, Q96JH8
GRIP1_7, Q9Y3R0 = biological target: T9, GRIP1_7, Q9Y3R0
MAST1, Q9Y2H9 = biological target: MAST1, Q9Y2H9
DFNB31_1, Q9P202 = biological target: T10, DFNB31_1, Q9P202
MAGI2_5, Q86UL8 = biological target: MAGI2_5, Q86UL8
RAPGEF6, Q8TEU7 = biological target: T11, RAPGEF6, Q8TEU7
NHERF4_1, Q86UT5-2 = biological target: NHERF4_1, Q86UT5-2
MAGI3_2, Q5TCQ9 = biological target: MAGI3_2, Q5TCQ9
Inadl_4, Q8NI35 = biological target: Inadl_4, Q8NI35
Inadl_4, Q8NI35, sequence (Q8NI35 547-651): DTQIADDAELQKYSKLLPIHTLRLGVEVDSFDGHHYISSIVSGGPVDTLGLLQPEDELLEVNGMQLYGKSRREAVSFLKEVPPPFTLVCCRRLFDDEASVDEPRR

LDB3, O75112, sequence (O75112 1-94): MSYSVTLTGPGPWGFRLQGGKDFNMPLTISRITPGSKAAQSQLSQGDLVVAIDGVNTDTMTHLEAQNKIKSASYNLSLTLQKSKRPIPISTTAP
IL16_1, Q14005, sequence (Q14005 210-306): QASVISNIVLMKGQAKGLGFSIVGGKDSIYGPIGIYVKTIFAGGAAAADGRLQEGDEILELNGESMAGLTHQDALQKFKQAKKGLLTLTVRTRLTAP
MAST1, Q9Y2H9, sequence (Q9Y2H9 962-1065): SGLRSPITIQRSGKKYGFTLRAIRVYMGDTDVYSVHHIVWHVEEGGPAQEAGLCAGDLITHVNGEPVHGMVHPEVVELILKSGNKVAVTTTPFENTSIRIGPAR
DLG4_2, P78352, sequence (P78352 155-259): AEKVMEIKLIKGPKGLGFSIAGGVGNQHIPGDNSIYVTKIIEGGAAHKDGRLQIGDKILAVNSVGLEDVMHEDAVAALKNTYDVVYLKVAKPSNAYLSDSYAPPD
MAGI3_2, Q5TCQ9, sequence (Q5TCQ9 398-503): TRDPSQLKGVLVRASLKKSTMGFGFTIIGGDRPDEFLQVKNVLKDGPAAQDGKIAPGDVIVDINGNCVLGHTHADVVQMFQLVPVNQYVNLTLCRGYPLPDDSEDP
HTRA2, O43464, sequence (O43464 355-458): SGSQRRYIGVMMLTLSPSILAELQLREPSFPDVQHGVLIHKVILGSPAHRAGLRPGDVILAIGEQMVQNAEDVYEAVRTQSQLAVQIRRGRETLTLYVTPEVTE
MAGI2_5, Q86UL8, sequence (Q86UL8 915-1017): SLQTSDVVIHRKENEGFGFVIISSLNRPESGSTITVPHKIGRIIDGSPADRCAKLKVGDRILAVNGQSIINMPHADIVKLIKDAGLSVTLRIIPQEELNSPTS
NHERF4_1, Q86UT5-2, sequence (Q86UT5 other isoform, or with tags, fused parts or gaps): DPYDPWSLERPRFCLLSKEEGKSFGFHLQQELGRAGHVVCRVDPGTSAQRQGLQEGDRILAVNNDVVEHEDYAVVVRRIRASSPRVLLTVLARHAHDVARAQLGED
FRMPD3, Q5JV73, sequence (Q5JV73 12-100): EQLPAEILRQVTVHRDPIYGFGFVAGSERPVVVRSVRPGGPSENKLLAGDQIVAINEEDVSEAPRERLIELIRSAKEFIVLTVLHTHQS
FRMPD4, Q14CM0, sequence (Q14CM0 67-160): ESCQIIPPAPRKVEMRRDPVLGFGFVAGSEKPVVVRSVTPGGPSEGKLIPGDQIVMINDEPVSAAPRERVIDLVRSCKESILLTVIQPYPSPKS
GRIP2_6, Q9C0E4, sequence (Q9C0E4 648-740): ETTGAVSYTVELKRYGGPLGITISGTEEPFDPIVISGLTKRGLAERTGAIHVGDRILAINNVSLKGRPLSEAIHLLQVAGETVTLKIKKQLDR
Inadl_2, Q8NI35, sequence (Q8NI35 238-335): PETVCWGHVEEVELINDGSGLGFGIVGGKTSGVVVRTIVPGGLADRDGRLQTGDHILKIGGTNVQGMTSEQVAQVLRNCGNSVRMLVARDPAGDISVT
FRMPD2_2, Q68DX3, sequence (Q68DX3 944-1038): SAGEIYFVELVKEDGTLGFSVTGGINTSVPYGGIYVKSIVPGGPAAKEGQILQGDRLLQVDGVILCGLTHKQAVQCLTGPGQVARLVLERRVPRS

pKd (GOPC, Q9HD26)	pKd (MPP6, Q9NZW5)	pKd (MPDZ_5, O75970)	pKd (IL16_1, Q14005)	pKd (DLG4_2, P78352)	pKd (Inadl_2, Q8NI35)	pKd (FRMPD4, Q14CM0)	pKd (MPP7, Q5T2T1)	pKd (FRMPD2_2, Q68DX3)	pKd (GRIP1_2, Q9Y3R0)	pKd (CARD11, Q9BXL7)	pKd (LDB3, O75112)	pKd (LRRC7, Q96NW7)	pKd (HTRA2, O43464)	pKd (FRMPD3, Q5JV73)	pKd (GRIP2_6, Q9C0E4)	pKd (MPDZ_10, O75970)	pKd (RADIL, Q96JH8)	pKd (GRIP1_7, Q9Y3R0)	pKd (MAST1, Q9Y2H9)	Binder	other results
below the threshold	3.51	below the threshold	below the threshold	below the threshold	below the threshold	below the threshold	below the threshold	below the threshold	below the threshold	below the threshold	3.51	below the threshold	below the threshold	below the threshold	below the threshold	below the threshold	below the threshold	below the threshold	below the threshold	RKPKPSSSCC [RAB9A, P51151]	pKd (DFNB31_1, Q9P202): below the threshold; pKd (MAGI2_5, Q86UL8): below the threshold; pKd (RAPGEF6, Q8TEU7): below the threshold; pKd (NHERF4_1, Q86UT5-2): 3.81; pKd (MAGI3_2, Q5TCQ9): below the threshold; pKd (Inadl_4, Q8NI35): below the threshold
below the threshold	below the threshold	below the threshold	below the threshold	4.11	below the threshold	below the threshold	below the threshold	below the threshold	below the threshold	below the threshold	3.65	below the threshold	below the threshold	below the threshold	below the threshold	below the threshold	below the threshold	below the threshold	4.55	TASPAKETSF [SLC2A7, Q6PXP3]	pKd (DFNB31_1, Q9P202): 3.94; pKd (MAGI2_5, Q86UL8): below the threshold; pKd (RAPGEF6, Q8TEU7): below the threshold; pKd (NHERF4_1, Q86UT5-2): 4; pKd (MAGI3_2, Q5TCQ9): below the threshold; pKd (Inadl_4, Q8NI35): below the threshold

Further lines, the binder ahead of its results:

Binder	pKd (GOPC, Q9HD26)	pKd (MPP6, Q9NZW5)	pKd (MPDZ_5, O75970)	pKd (IL16_1, Q14005)	pKd (DLG4_2, P78352)	pKd (Inadl_2, Q8NI35)	pKd (FRMPD4, Q14CM0)	pKd (MPP7, Q5T2T1)	pKd (FRMPD2_2, Q68DX3)	pKd (GRIP1_2, Q9Y3R0)	pKd (CARD11, Q9BXL7)	pKd (LDB3, O75112)	pKd (LRRC7, Q96NW7)	pKd (HTRA2, O43464)	pKd (FRMPD3, Q5JV73)	pKd (GRIP2_6, Q9C0E4)	pKd (MPDZ_10, O75970)	pKd (RADIL, Q96JH8)	pKd (GRIP1_7, Q9Y3R0)	pKd (MAST1, Q9Y2H9)	other results
LKVPPEERLI [CRB2, Q5IJ48]	below the threshold	3.68	below the threshold	below the threshold	below the threshold	below the threshold	below the threshold	below the threshold	below the threshold	below the threshold	below the threshold	below the threshold	below the threshold	below the threshold	below the threshold	below the threshold	below the threshold	below the threshold	below the threshold	3.58	pKd (DFNB31_1, Q9P202): below the threshold; pKd (MAGI2_5, Q86UL8): below the threshold; pKd (RAPGEF6, Q8TEU7): below the threshold; pKd (NHERF4_1, Q86UT5-2): below the threshold; pKd (MAGI3_2, Q5TCQ9): below the threshold; pKd (Inadl_4, Q8NI35): below the threshold
YRLAQESGLV [ABCC6, O95255]	below the threshold	3.74	below the threshold	below the threshold	3.55	below the threshold	below the threshold	below the threshold	below the threshold	below the threshold	below the threshold	below the threshold	below the threshold	below the threshold	below the threshold	below the threshold	below the threshold	4.22	below the threshold	3.59	pKd (DFNB31_1, Q9P202): below the threshold; pKd (MAGI2_5, Q86UL8): 3.61; pKd (RAPGEF6, Q8TEU7): below the threshold; pKd (NHERF4_1, Q86UT5-2): 3.51; pKd (MAGI3_2, Q5TCQ9): below the threshold; pKd (Inadl_4, Q8NI35): below the threshold

— PMC9482650, “Quantitative fragmentomics allow affinity mapping of interactomes” (Nature Communications, 2022)
